Data set [1] deals with Msh2-msh6(3MBD) (Saccharomyces cerevisiae) (UniProt P25847+Q03834). Description: BLI. Particulars: BLI: 25 mM Tris-HCl pH 7.5, 1 mM EDTA, 100 mM NaCl, 0.1 mg/mL BSA, 1 mM DTT, 0.05% Tween-20; DNA 7.5 nM (30 nM for Msh2-Msh6); temperature not stated; no ….
For another data set, the target named is Msh2-Msh3 (Saccharomyces cerevisiae, UniProt P25847;P25336 1-964;1-1018). In words: BLI; BLI: 25 mM Tris-HCl pH 7.5, 1 mM EDTA, 100 mM NaCl, 0.1 mg/mL BSA, 1 mM DTT, 0.05% Tween-20; DNA 7.5 nM (30 nM for Msh2-Msh6); temperature not stated; no nucleotide or Mg2+ listed. Conditions: protein: recombinant, copies: 1;1, label: 5' biotin on bottom strand. In general terms: In BLI a coated tip is dipped into the sample, and binding shifts an interference pattern.
Chain of Msh2-Msh3 (P25847 whole entry, chain 1 of 2): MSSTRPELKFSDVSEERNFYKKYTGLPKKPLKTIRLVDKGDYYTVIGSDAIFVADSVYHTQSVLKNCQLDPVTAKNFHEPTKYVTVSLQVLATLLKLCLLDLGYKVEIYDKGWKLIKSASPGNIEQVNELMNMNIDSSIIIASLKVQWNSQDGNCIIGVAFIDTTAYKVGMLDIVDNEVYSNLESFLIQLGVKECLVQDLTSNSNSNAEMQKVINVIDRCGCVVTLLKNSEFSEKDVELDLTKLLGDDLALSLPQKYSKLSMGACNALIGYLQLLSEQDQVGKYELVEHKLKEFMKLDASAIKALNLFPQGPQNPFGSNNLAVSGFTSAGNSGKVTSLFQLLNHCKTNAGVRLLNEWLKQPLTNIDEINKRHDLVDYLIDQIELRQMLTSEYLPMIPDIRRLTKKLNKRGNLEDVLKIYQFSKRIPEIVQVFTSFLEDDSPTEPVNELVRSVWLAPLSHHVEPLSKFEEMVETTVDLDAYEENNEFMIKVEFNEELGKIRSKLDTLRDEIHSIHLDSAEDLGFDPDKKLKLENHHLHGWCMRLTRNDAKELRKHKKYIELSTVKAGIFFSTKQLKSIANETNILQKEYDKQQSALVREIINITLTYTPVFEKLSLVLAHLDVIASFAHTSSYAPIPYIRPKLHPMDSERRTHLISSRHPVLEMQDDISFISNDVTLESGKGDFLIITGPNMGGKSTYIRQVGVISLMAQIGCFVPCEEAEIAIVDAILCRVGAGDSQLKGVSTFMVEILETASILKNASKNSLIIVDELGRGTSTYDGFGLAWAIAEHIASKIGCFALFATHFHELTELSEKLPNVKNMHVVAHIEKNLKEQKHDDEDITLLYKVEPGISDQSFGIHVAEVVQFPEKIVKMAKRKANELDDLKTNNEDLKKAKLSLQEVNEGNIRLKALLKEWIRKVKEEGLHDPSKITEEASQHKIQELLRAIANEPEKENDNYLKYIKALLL
Chain of Msh2-Msh3 (P25336 whole entry, chain 2 of 2): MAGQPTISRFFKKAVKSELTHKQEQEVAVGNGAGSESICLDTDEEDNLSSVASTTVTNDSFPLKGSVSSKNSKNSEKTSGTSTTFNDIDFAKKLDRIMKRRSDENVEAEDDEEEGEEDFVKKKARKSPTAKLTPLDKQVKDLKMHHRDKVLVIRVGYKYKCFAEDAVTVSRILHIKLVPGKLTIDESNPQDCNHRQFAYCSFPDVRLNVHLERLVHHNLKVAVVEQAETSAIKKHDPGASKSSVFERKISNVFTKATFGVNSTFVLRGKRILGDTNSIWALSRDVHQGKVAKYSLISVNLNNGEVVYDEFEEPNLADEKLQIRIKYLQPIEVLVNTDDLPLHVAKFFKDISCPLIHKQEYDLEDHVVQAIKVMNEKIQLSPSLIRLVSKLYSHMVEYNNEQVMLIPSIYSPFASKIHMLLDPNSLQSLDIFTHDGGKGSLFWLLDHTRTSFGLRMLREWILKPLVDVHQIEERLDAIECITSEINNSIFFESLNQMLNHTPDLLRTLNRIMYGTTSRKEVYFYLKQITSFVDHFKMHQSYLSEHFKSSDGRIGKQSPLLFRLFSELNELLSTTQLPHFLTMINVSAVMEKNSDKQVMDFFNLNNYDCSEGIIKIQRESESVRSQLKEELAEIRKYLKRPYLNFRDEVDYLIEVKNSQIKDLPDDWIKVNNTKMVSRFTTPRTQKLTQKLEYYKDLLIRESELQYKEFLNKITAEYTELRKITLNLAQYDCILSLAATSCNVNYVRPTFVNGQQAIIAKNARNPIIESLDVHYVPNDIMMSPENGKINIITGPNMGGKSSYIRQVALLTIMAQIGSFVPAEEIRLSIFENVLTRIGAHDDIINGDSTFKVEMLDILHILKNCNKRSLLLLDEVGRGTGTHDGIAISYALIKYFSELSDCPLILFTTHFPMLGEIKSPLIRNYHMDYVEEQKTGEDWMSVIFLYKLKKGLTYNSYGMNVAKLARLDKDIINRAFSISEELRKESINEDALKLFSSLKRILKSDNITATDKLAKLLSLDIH

For another data set, the target named is Msh2-Msh6 (Saccharomyces cerevisiae, UniProt P25847;Q03834 1-964;1-1242). The data set is described as above. Particulars: protein: recombinant, copies: 1;1, label: 5' biotin on bottom strand.
Chain of Msh2-Msh6 (P25847 whole entry, chain 1 of 2): as the sequence (P25847 whole entry, chain 1 of 2) above
Chain of Msh2-Msh6 (Q03834 whole entry, chain 2 of 2): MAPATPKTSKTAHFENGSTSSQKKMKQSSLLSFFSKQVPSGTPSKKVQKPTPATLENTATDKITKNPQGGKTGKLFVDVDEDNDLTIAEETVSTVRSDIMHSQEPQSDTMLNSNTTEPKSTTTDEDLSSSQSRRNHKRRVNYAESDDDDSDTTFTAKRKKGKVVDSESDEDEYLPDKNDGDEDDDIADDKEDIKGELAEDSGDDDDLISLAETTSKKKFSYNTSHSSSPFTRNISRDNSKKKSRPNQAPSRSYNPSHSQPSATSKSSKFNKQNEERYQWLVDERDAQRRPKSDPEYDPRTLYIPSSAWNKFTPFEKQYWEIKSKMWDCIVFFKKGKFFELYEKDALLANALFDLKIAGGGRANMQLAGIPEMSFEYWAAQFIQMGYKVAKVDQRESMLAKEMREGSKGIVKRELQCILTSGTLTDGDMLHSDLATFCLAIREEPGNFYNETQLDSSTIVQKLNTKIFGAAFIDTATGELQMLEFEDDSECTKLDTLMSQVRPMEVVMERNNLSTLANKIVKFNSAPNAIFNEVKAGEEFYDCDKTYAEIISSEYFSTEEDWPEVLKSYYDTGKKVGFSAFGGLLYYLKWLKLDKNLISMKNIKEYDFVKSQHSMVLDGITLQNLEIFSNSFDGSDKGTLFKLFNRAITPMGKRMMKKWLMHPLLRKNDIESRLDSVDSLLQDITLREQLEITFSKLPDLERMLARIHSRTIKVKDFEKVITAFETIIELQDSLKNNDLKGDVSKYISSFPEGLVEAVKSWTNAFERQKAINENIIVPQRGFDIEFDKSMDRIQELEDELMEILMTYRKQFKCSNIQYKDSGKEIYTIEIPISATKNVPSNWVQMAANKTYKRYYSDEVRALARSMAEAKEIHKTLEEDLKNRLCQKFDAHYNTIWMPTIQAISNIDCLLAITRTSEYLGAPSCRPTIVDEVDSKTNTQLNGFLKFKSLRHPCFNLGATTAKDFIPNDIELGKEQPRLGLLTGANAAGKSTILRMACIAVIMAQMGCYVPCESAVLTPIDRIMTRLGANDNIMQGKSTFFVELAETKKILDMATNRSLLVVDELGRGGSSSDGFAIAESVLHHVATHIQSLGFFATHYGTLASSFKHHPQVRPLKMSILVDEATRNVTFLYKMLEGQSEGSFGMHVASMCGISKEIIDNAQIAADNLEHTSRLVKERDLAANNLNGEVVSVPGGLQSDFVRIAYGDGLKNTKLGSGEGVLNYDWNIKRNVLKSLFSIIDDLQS
Where [2] appears, read: as printed, bottom strand has 1 extra nt (T opposite missing A after CTAGG of top; possible misprint), described as homoduplex.
[3] abbreviates: blunt, extrahelical (CAG)10 quasi-hairpin in top strand.
Where [4] appears, read: blunt, extrahelical (CTG)10 quasi-hairpin in top strand.
Setting [5] is: blunt, 8-nt extrahelical loop in top strand.

Chain of Msh2-msh6(3MBD) (Saccharomyces cerevisiae) (P25847 whole entry, chain 1 of 2): as the sequence (P25847 whole entry, chain 1 of 2) above
Chain of Msh2-msh6(3MBD) (Saccharomyces cerevisiae) (Q03834 whole entry, chain 2 of 2): as the sequence (Q03834 whole entry, chain 2 of 2) above

For “CACGCTACCGAATTCTGACTTGCTAGGTGTGTGTGACATCTTTGCCCACGTTGACCC / GGGTCAACGTGGGCAAAGATGTCCTAGCAAGTCAGAATTCGGTAGCGTG [+8 loop, (GT)4 (LS8/LS2-Bio)]”, in data set [1], the Kd – broadly, the free concentration of one partner at which half of the binding sites on the other are occupied at equilibrium, for simple one-to-one binding – amounted to 0.872 nM.
The same measure, in the same setting: the same measure for “CACGCTACCGAATTCTGACTTGCTAGCTGCTGCTGCTGCTGCTGCTGCTGCTGCTGGACATCTTTGCCCACGTTGACCC / GGGTCAACGTGGGCAAAGATGTCCTAGCAAGTCAGAATTCGGTAGCGTG [(CTG)10 (LS-CTG/LS2-Bio)]”: 1.05 nM; for “CACGCTACCGAATTCTGACTTGCTAGGCATCTTTGCCCACGTTGACCC / GGGTCAACGTGGGCAAAGATGTCCTAGCAAGTCAGAATTCGGTAGCGTG [Homoduplex (LS1/LS2-Bio)]”: 7.16 nM.
“CACGCTACCGAATTCTGACTTGCTAGCAGCAGCAGCAGCAGCAGCAGCAGCAGCAGGACATCTTTGCCCACGTTGACCC / GGGTCAACGTGGGCAAAGATGTCCTAGCAAGTCAGAATTCGGTAGCGTG [(CAG)10 (LS-CAG/LS2-Bio)]” yielded a dissociation constant Kd in data set [1] of 2.37 nM.

B1: Homoduplex (LS1/LS2-Bio) (dsDNA)
DNA 1: CACGCTACCGAATTCTGACTTGCTAGGCATCTTTGCCCACGTTGACCC
DNA 2: GGGTCAACGTGGGCAAAGATGTCCTAGCAAGTCAGAATTCGGTAGCGTG
As for B1, the dissociation constant (Kd) with Msh2-Msh3 (setting [2]) is 9.22 nM; in the data set with Msh2-Msh6 (setting [2]) it was 21 nM.

B2: (CAG)10 (LS-CAG/LS2-Bio) (dsDNA)
DNA 1: CACGCTACCGAATTCTGACTTGCTAGCAGCAGCAGCAGCAGCAGCAGCAGCAGCAGGACATCTTTGCCCACGTTGACCC
DNA 2: B1 DNA 2
For B2, the figures for the equilibrium dissociation constant (Kd) with Msh2-Msh3 (setting [3]) and in the data set with Msh2-Msh6 (setting [3]) were 1.38 nM and 2.73 nM, respectively.

B3: (CTG)10 (LS-CTG/LS2-Bio) (dsDNA)
DNA 1: CACGCTACCGAATTCTGACTTGCTAGCTGCTGCTGCTGCTGCTGCTGCTGCTGCTGGACATCTTTGCCCACGTTGACCC
DNA 2: B1 DNA 2
With B3, the Kd with Msh2-Msh3 (setting [4]) is 2.25 nM; in the data set with Msh2-Msh6 (setting [4]), 3.07 nM.

B4: +8 loop, (GT)4 (LS8/LS2-Bio) (dsDNA)
DNA 1: CACGCTACCGAATTCTGACTTGCTAGGTGTGTGTGACATCTTTGCCCACGTTGACCC
DNA 2: B1 DNA 2
As to B4, the Kd turned out to be 2.62 nM with Msh2-Msh3 (setting [5]) and 8.67 nM with Msh2-Msh6 (setting [5]).

Source of the values: article PMC11912836, “Msh2-Msh3 DNA-binding is not sufficient to promote trinucleotide repeat expansions in Saccharomyces cerevisiae”.
